Test results taken from patent publication US20200223906A1 (Adimab, published 2020).

B1: ADI-18988 (antibody, V domains shown)
VH: EVQLVESGGGLVRPGGSLRLSCAASGFSLSSYGMSWVRQAPGKGLEWVSSITAGSSYINYADSVKGRFTISRDNAKSSLFLQMTSLRVEDTAVYFCVREAYASSSALYWFDPWGQGTLVTVSS
VL: QSVLTQPPSVSGAPGQRVTISCTGSSSNLGAGYVVHWYQQLPGTSPKLLIYGNTDRPSGVPDRFSGSKSGTSASLAISGLQAEDEADYYCQSYDSSLSGWVFGGGTKLTVL
B2: ADI-18991 (antibody, V domains shown)
VH: EVQLVESGPGLVKPSETLSLSCIVSGDSITSNDYYWSWIRQSPGKGLEWIGYIYHSGATFYTPSLRSRVTISTDRSKNQFSLRLSSVTAADTAVYYCASGPVGMATSNWFDPWGQGTLVTVSS
VL: QPVLTQPPSVSVAPGKTATLTCGGDIIRTNSVNWYQQKPGQAPVLIIYYDSDRPSGIPGRFSASNSGSAATLTISRVEAGDEADYYCQVWDSSTDYHVVFGGGTKLTVL
B3: ADI-18993 (antibody, V domains shown)
VH: EVQLVESGGGLVKPGGSLRLSCAASGFTLSSYAMNWVRQAPGKGLEWVSSISAGSSYIDYADSVKGRFTISRDNAKNSLYLQMNNLRAEDTALYYCAREVLPATAIGGAWLDPWGQGTLVTVSS
VL: QSVLTQPPSVSGAPGQTVTISCTGSSSNIGAGYDVHWYRQLPGTAPKLLIYSNNNRPSGVPDRFSGSKSDTSASLAITGLQAGDEADYYCQSYDISLSASYVFGTGTKVTVL
B4: ADI-18994 (antibody, V domains shown)
VH: QVQLVQSGAEVKKPGASVKVSCKASGYTFTNYGFSWVRQAPGQGLEWMGWILTHNGYTNYAQKFQDRVTMKTDTSTSTVYMELRSLRSVDTAVYYCARIGHVTAVAGAPPDYWGQGTLVTVSS
VL: QPVLTQPASVSGYQGQSITISCSGTSSDVGTYNLVSWYQQHPGKAPELMIYEGSKRPSGVSDRFSGSKSGNTASLTISGLQAEDEADYYCCSYVAGSTSVFGGGTKLTVL
B5: ADI-18996 (antibody, V domains shown)
VH: QVQLVQSGAEVKRPGASVKVSCKASEYAFTAHYLHWVRQAPDQGLEWMGWISPKSGGTNYAQKFHGRVSMTSDTSISTVYMELSSLTSDDTAVYYCARSSLVGASPNFDFWGQGTLVTVSS
VL: QSVVTQPPSVSAAPGQRVTISCSGSSSNIGNNYVSWYQQLPGSTPKVLIYDNNQRPSGIPDRFSGSKSGTSATLAISGLQTGDEAVYYCGTWDASLSAAMVFGGGTKLTVL
B6: ADI-18997 (antibody, V domains shown)
VH: QVQLQQWGAGLLKPSETLSLTCAVSGGYFINDNWSWIRQSPGKGLEWIGEISHSGSTNYNPSLKSRLTISVDTSRQQFSLKLSSVTAADSGVYYCARVHPSYDFGWRFFDFWGQGTLVTVSS
VL: ETTLTQSPATLSVSPGDTATLSCRASQTISSNLAWYQQKPGQPPSLLIYGASNRATGIPDRFRGSGSGTEFTLTISSLQSEDFAVYYCQQYAYWPPYTFGQGTKVEIK
B7: ADI-18888 (antibody, V domains shown)
VH: QVQLVESGGGVVQPGRSLRLSCVASGFSFSMHGMHWVRQAPGKGLEWVTAIWYDGSNKYYADSVKGRFTISRDNSRNTLYLQMNSLRAEDTAVYYCARDHASTPYYMDVWGKGTTVTVSS
VL: ETTLTQSPGTLSLSPGESATLSCRTSQRISSTYLAWYRQKPGQAPRLLMYGASSRATGIPDRFSGSGSGTDFTLTISSLEPEDFALYYCQQYGSFPWTFGQGTKLEIK
notes: full-length IgG from yeast; also called Antibody Number 243; Ab # 243
B8: ADI-18906 (antibody, V domains shown)
VH: EVQLVESGGGVVQPGRSLRLSCVASGFSFSMHGMHWVRQAPGKGLEWVTAIWYDGSNKYYADSVKGRFTISRDNSRNTLYLQMNSLRAEDTAVYYCARDHASTPYYMDVWGKGTTVTVSS
VL: ETTLTQSPGTLSLSPGESATLSCRTSQRISSTYLAWYRQKPGQAPRLLMYGASSRATGIPDRFSGSGSGTDFTLTISSLEPEDFALYYCQQYGSFPWTFGQGTKVEIK
notes: full-length IgG from yeast
B9: ADI-19002 (antibody, V domains shown)
VH: EVQLVESGPGLVKPSETLSLTCTVSGGSVSGHYWSWIRQFPGKELEWIGHIYYIGTTNYNPSLKSRVIISLDTSKNQLSLKLSSVTAADTAVYYCARQFGYDKNTLSRLDFDYWGQGTLVTVSS
VL: DIQMTQSPSSLSASVRDRVTITCRASQSISSYLNWYQQRPGKAPKLLIYSAFSLHSGVPSRFSGSGSETEFTLTISSLQPDDFATYYCQQSYSIPWTFGQGTKVEIK
B10: ADI-19003 (antibody, V domains shown)
VH: QVQLQESGPGLVKPSETLSLTCSVSGGSITNVNYYWGWIRQPPGKGLEWIGSIYYNGNTYYNPSLQSRVTMSVDTSKNHFSLRLTSVTAADTAVYFCAREGPNWELLNAFDIWGQGTTVTVSS
VL: SYELTQPPSVSVAPGQTARITCGGNNIGSKNVHWYQQKPGQAPVLVVYEDTHRPSGIPERFSGSNSGNTATLTISRVEAGDEADYYCQVWDTSSDHVVFGGGTKLTVL
B11: ADI-19004 (antibody, V domains shown)
VH: QVQLVQSGAEVKKPGASVKVSCKTSGYTFSHFGVTWIRQAPGQGLEWLGWISAYNGNTDSADKLQGRLTMTTDTSTNTAYMELRSLRSDDTAVYYCARDPPASAAAMLDYWGQGTLVTVSS
VL: DIQMTQSPLSLAVTLGQPASISCRSSQGLEYTDGNTYLSWFQQRPGQSPRRLIYKVSNRDSGVPDRFSGSGAGTDFTLRISRVEAEDVGVYYCMQGTHGRGISFGPGTKVDIK
B12: ADI-19005 (antibody, V domains shown)
VH: QVQLVQSGAEVKKPGASVRVSCKASGYTFTDYFMNWVRQAPGGGLEWMGWINPLSGVTKYAQQFQGSVTMTTDTSITTGYMELRSLRVDDTAVYYCASQSSPYTPGAMGVWGQGTTVTVSS
VL: DIRMTQSPSSLSASVGDRVTITCRTSQSVSGYLSWYQQKPGKAPKLLIYAASNLYSGVPSRFSGSGSGTDFTLTITSLQPEDFATYFCQLNSGALFTFGPGTKVEIK
B13: ADI-19006 (antibody, V domains shown)
VH: EVQLVESGGGLVKPGESVKLSCAASGFTITDSYMAWIRQSPGKGLEWLAYISSTSLFTDYTDSVKGRFIITRDNAENSLYLQMTSLTPADTGVYFCARAKTSYYFYALDVWGPGTLVTVSS
VL: ETTLTQSPGTLSLSPGERATLSCRASQSVNNNYLAWFQHKPGQAPRLLIYNASNRAAGIPDRFSGSGSGTDFTLTISKLEPGDSAVYYCQRYGNSWPFGQGTKVEIK
B14: ADI-19008 (antibody, V domains shown)
VH: EVQLVESGGGVVQPGRSLRLSCVASGFSFSAYGMHWVRQVPTKGLEWVAVISYDGRDIYYTDSVKGRFTISRDNSKNMLYLQMNSLRPEDRAVYYCARDPSLGYNNHYFDYWGQGTLVTVSS
VL: EIVLTQSPATLSLSPGETATLSCRASQSVTGNLAWYQQKPGQAPRLLIYAASNRATGIPARFSGSGSGTDFTLTISSLEPEDFAVYFCQQRSNWPPMYSFGQGTKLEIK
B15: ADI-19009 (antibody, V domains shown)
VH: QVQLVQSGAEVKRPGSSVKVSCKASGGTFRGYHISWVRQAPGQGLEWMGGIIHLFGTVSYAPKFQGRVTITADASTGTAHMELSSLTSDDTAIYYCARDAYEVWTGSYLPPFDYWGQGTLVTVSS
VL: DIVMTQTPGTLSLSPGERVTLSCRASQTVTSSYLAWYQQKPGQAPRLLIYGAFTRATGIPDRFSGSGSGTDFTLTISRLEPEDFAVYYCQQYGSSFLTFGGGTKLEIK
B16: ADI-19010 (antibody, V domains shown)
VH: EVQLVESGGGLVKPGGSLRLSCAASGFTFSSYSMNWVRQAPGKGLEWVSSISSSSSYIYYADSVKGRFTISRDNAKNSLYLQMNSLRAEDTAVYYCARDVQYSGYDSGYYFDYWGQGTLVTVSS
VL: QPVLTQPPSVSGAPGQRVTISCTGSSSNIGAGYDVHWYQQLPGTAPKLLIYGNSNRPSGVPDRFSGSKSGTSASLAITGLQAEDEADYYCQSYDSSLSALYVFGTGTKVTVL
B17: ADI-19011 (antibody, V domains shown)
VH: EVQLVESGGGVVQPGGSLRLSCAGSGFAFGSFAMHWVRQAPGKGLEWVAVISFDGKNTKYADSVKGRFTTSRDNSRNTLYLQMDSLRGDDTAIYYCATIRGIVAGLCDNWGQGTLVTVSS
VL: QPVLTQSSSDSASLGASVKLTCTLSSGHRNYIIAWHQQQPGKAPRFLMKVEGSGSFTMGSGVPDRFSGSSSGADRYLTISNLQSEDEADYYCEAWDFNTGGVFGGGTQLTVL
B18: ADI-19016 (antibody, V domains shown)
VH: QVQLVESGGGLVKPGGSLRLSCVASGFTFSSYAMNWVRQAPGKGLDWVSSISAGSNFIDDADSVKGRFTISRDNARNSLFLQMNSLRAEDTAVYYCARIGYSSAHHYQYYMDVWGTGTTVTVSS
VL: QSVLTQPPSVSGAPGQRVTISCTGSSSNIGAGYDVHWYQDLPGTAPKLLIYGNTNRPSGVPDRFSGSKSGASASLVITGLQAEDEADYYCQSYDKSLSGGYVFGTGTKVTVL
B19: ADI-19017 (antibody, V domains shown)
VH: QVQLVQSGAEVKKPGASVRVTCKASGYTFTDYFMNWVRQAPGGGLEWMGWINPLSGVTKYAQQFQGSVTMTTDTSITTGYMELRSLRVDDTAVYYCASQSSPYTPGAMGVWGQGTTVTVSS
VL: SYELIQLPSVSVSPGQTARITCSGDALPKQYAYWYQQKPGQAPVLVIYKDSERPSGIPERFSGSSSGTTVTLTISGVQAEDEADYYCQSADSSGTYPVVFGGGTKLTVL

Columns and labels:
[1] = target: RSV F protein of subtype A (strain A2) on recombinant mKate-RSV (respiratory syncytial virus subtype A …, UniProt P03420 26-574); assay: cell-based or functional assay
[2] = target: RSV F protein of subtype B (18537) on recombinant mKate-RSV (respiratory syncytial virus subtype B …, UniProt P13843 26-574); assay: cell-based or functional assay
[3] = target: RSV F protein of subtype A (strain A2) on recombinant mKate-RSV virus (Respiratory syncytial virus subtype A …, UniProt P03420 26-574); assay: cell-based or functional assay
[4] = target: RSV F protein of subtype B (18537) on recombinant mKate-RSV virus (Respiratory syncytial virus subtype B …, UniProt P13843 26-574); assay: cell-based or functional assay
[5] = target: T1, RSV F subtype B, furin-cleaved ectodomain stabilized in the postfusion conformation (F ΔFP) (Respiratory syncytial virus subtype B); assay: BLI, IgG on AHQ sensor, 100 nM antigen
T1 construct: extracellular domain; Trimeric soluble antigen; also called Postfusion subtype B

| Binder | Neut IC50 subtype A [1] [µg/mL] | Neut IC50 subtype B [2] [µg/mL] | Neut IC50 (µg/ml) subtype A [3] [µg/mL] | Neut IC50 (µg/ml) subtype B [4] [µg/mL] | Kd [5] [nM] |
| --- | --- | --- | --- | --- | --- |
| B1 | 0.089 | 0.37 |  |  |  |
| B2 | 0.028 | 0.228 |  |  |  |
| B3 | 0.078 | 0.128 |  |  |  |
| B4 | 0.047 | 0.108 |  |  |  |
| B5 | > 10 | > 10 |  |  |  |
| B6 | > 10 | > 10 |  |  |  |
| B7 |  |  | > 10 | > 10 | 1.16 |
| B8 |  |  | > 10 | > 10 | 1.1 |
| B9 | 2.89 | 4.51 |  |  |  |
| B10 | 0.047 | 0.125 |  |  |  |
| B11 | 0.02 | 0.128 |  |  |  |
| B12 | 0.041 | 0.11 |  |  |  |
| B13 | 4.89 | 5.06 |  |  |  |
| B14 | 8.29 | > 10 |  |  |  |
| B15 | 0.062 | 0.066 |  |  |  |
| B16 | > 10 | 0.65 |  |  |  |
| B17 | > 10 | 6.24 |  |  |  |
| B18 | 0.052 | 0.092 |  |  |  |
| B19 | 1.56 | 0.795 |  |  |  |
